Biological target: T1, Vph1NT-FLAG (first 406 amino acids of Vph1p with C-terminal FLAG) (S. cerevisiae, UniProt P32563 1-406)
T1 sequence (looked up): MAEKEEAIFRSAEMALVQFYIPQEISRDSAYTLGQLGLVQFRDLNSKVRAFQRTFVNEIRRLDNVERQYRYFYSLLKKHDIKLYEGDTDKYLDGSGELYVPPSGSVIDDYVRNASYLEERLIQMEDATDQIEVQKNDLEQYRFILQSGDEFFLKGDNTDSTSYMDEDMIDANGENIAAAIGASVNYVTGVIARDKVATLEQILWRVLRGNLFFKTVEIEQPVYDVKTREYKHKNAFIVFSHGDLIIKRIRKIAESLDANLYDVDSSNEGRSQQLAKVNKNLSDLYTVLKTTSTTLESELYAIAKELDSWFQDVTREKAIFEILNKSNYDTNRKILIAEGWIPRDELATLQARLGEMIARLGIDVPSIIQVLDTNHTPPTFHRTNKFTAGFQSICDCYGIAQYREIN
Assay: pull-down

B1: GST-Rav1(840–1125) (domain or fragment, S. cerevisiae, UniProt P47104 840-1125, looked up)
chain: LTEQLTKTTLPYLTRHQQITLITVIEAVDEVTKNENIVDYNGVRFLLGVKLFLSHKNIQKSILMRDVSWALHSDNKEILLSSIDRHITSWNRAREYRIAYWIKEQDLVKKFEDIAKYEFSKDDKRDPSRCAIFYLALKKKQILLSLWKMAIGHPEQQKMVRFISNDFTVPRWRTAALKNAFVLLSKHRYMDAAVFFLLTDSLKDCVNVLCKQVHDMDLAIGVCRVYEGDNGPVLGELLTAQMLPETIKENDRWKASFIYWKLRKQEVAIKALLTAPIDLENNSSIV
B1: binds.
